Assay results published in patent US20110166062A1 (INDIANA UNIVERSITY RESEARCH AND TECHNOLOGY, published 2011).
Where no end group is shown, it is not given here. [ ]: non-standard residue; d: D form. The star is where a group is joined. PEG 40 kDa = PEG (40 kDa) covalently attached to Cys; Stearoyl = CCCCCCCCCCCCCCCCCC(=O)*; Palmitoyl = CCCCCCCCCCCCCCCC(=O)*; Myristoyl = CCCCCCCCCCCCCC(=O)*; Aib = CC(C)(N)C(=O)O

B1: mt-257 (peptide)
peptide: Y[Aib]QGTFTSDYSIYLDKQAA[Aib]EFVCWLLAG-NH2
modifications: N-terminus assumed
SMILES: CC[C@H](C)[C@H](NC(=O)[C@H](CO)NC(=O)[C@H](Cc1ccc(O)cc1)NC(=O)[C@H](CC(=O)O)NC(=O)[C@H](CO)NC(=O)[C@@H](NC(=O)[C@H](Cc1ccccc1)NC(=O)[C@@H](NC(=O)CNC(=O)[C@H](CCC(N)=O)NC(=O)C(C)(C)NC(=O)[C@@H](N)Cc1ccc(O)cc1)[C@@H](C)O)[C@@H](C)O)C(=O)N[C@@H](Cc1ccc(O)cc1)C(=O)N[C@@H](CC(C)C)C(=O)N[C@@H](CC(=O)O)C(=O)N[C@@H](CCCCN)C(=O)N[C@@H](CCC(N)=O)C(=O)N[C@@H](C)C(=O)N[C@@H](C)C(=O)NC(C)(C)C(=O)N[C@@H](CCC(=O)O)C(=O)N[C@@H](Cc1ccccc1)C(=O)N[C@H](C(=O)N[C@@H](CS)C(=O)N[C@@H](Cc1c[nH]c2ccccc12)C(=O)N[C@@H](CC(C)C)C(=O)N[C@@H](CC(C)C)C(=O)N[C@@H](C)C(=O)NCC(N)=O)C(C)C
B2: mt-277 (peptide)
peptide: Y[Aib]QGTFTSDYSIYLDKQAA[Aib]EFVNWLLAGGPSSGAPPPSK(Myristoyl)-NH2
modifications: N-terminus assumed
SMILES: CCCCCCCCCCCCCC(=O)NCCCC[C@H](NC(=O)[C@H](CO)NC(=O)[C@@H]1CCCN1C(=O)[C@@H]1CCCN1C(=O)[C@@H]1CCCN1C(=O)[C@H](C)NC(=O)CNC(=O)[C@H](CO)NC(=O)[C@H](CO)NC(=O)[C@@H]1CCCN1C(=O)CNC(=O)CNC(=O)[C@H](C)NC(=O)[C@H](CC(C)C)NC(=O)[C@H](CC(C)C)NC(=O)[C@H](Cc1c[nH]c2ccccc12)NC(=O)[C@H](CC(N)=O)NC(=O)[C@@H](NC(=O)[C@H](Cc1ccccc1)NC(=O)[C@H](CCC(=O)O)NC(=O)C(C)(C)NC(=O)[C@H](C)NC(=O)[C@H](C)NC(=O)[C@H](CCC(N)=O)NC(=O)[C@H](CCCCN)NC(=O)[C@H](CC(=O)O)NC(=O)[C@H](CC(C)C)NC(=O)[C@H](Cc1ccc(O)cc1)NC(=O)[C@@H](NC(=O)[C@H](CO)NC(=O)[C@H](Cc1ccc(O)cc1)NC(=O)[C@H](CC(=O)O)NC(=O)[C@H](CO)NC(=O)[C@@H](NC(=O)[C@H](Cc1ccccc1)NC(=O)[C@@H](NC(=O)CNC(=O)[C@H](CCC(N)=O)NC(=O)C(C)(C)NC(=O)[C@@H](N)Cc1ccc(O)cc1)[C@@H](C)O)[C@@H](C)O)[C@@H](C)CC)C(C)C)C(N)=O
B3: mt-278 (peptide)
peptide: Y[Aib]QGTFTSDYSIYLDKQAA[Aib]EFVNWLLAGGPSSGAPPPSK(Palmitoyl)-NH2
modifications: N-terminus assumed
SMILES: CCCCCCCCCCCCCCCC(=O)NCCCC[C@H](NC(=O)[C@H](CO)NC(=O)[C@@H]1CCCN1C(=O)[C@@H]1CCCN1C(=O)[C@@H]1CCCN1C(=O)[C@H](C)NC(=O)CNC(=O)[C@H](CO)NC(=O)[C@H](CO)NC(=O)[C@@H]1CCCN1C(=O)CNC(=O)CNC(=O)[C@H](C)NC(=O)[C@H](CC(C)C)NC(=O)[C@H](CC(C)C)NC(=O)[C@H](Cc1c[nH]c2ccccc12)NC(=O)[C@H](CC(N)=O)NC(=O)[C@@H](NC(=O)[C@H](Cc1ccccc1)NC(=O)[C@H](CCC(=O)O)NC(=O)C(C)(C)NC(=O)[C@H](C)NC(=O)[C@H](C)NC(=O)[C@H](CCC(N)=O)NC(=O)[C@H](CCCCN)NC(=O)[C@H](CC(=O)O)NC(=O)[C@H](CC(C)C)NC(=O)[C@H](Cc1ccc(O)cc1)NC(=O)[C@@H](NC(=O)[C@H](CO)NC(=O)[C@H](Cc1ccc(O)cc1)NC(=O)[C@H](CC(=O)O)NC(=O)[C@H](CO)NC(=O)[C@@H](NC(=O)[C@H](Cc1ccccc1)NC(=O)[C@@H](NC(=O)CNC(=O)[C@H](CCC(N)=O)NC(=O)C(C)(C)NC(=O)[C@@H](N)Cc1ccc(O)cc1)[C@@H](C)O)[C@@H](C)O)[C@@H](C)CC)C(C)C)C(N)=O
B4: mt-306 (peptide)
peptide: Y[Aib]EGTFTSDYSIYLDKQAA[Aib]EFVCWLLAGGPSSGAPPPSK(Myristoyl)-NH2
modifications: N-terminus assumed
SMILES: CCCCCCCCCCCCCC(=O)NCCCC[C@H](NC(=O)[C@H](CO)NC(=O)[C@@H]1CCCN1C(=O)[C@@H]1CCCN1C(=O)[C@@H]1CCCN1C(=O)[C@H](C)NC(=O)CNC(=O)[C@H](CO)NC(=O)[C@H](CO)NC(=O)[C@@H]1CCCN1C(=O)CNC(=O)CNC(=O)[C@H](C)NC(=O)[C@H](CC(C)C)NC(=O)[C@H](CC(C)C)NC(=O)[C@H](Cc1c[nH]c2ccccc12)NC(=O)[C@H](CS)NC(=O)[C@@H](NC(=O)[C@H](Cc1ccccc1)NC(=O)[C@H](CCC(=O)O)NC(=O)C(C)(C)NC(=O)[C@H](C)NC(=O)[C@H](C)NC(=O)[C@H](CCC(N)=O)NC(=O)[C@H](CCCCN)NC(=O)[C@H](CC(=O)O)NC(=O)[C@H](CC(C)C)NC(=O)[C@H](Cc1ccc(O)cc1)NC(=O)[C@@H](NC(=O)[C@H](CO)NC(=O)[C@H](Cc1ccc(O)cc1)NC(=O)[C@H](CC(=O)O)NC(=O)[C@H](CO)NC(=O)[C@@H](NC(=O)[C@H](Cc1ccccc1)NC(=O)[C@@H](NC(=O)CNC(=O)[C@H](CCC(=O)O)NC(=O)C(C)(C)NC(=O)[C@@H](N)Cc1ccc(O)cc1)[C@@H](C)O)[C@@H](C)O)[C@@H](C)CC)C(C)C)C(N)=O
B5: mt-296 (peptide)
peptide: Y[Aib]EGTFTSDYSIYLDKQAA[Aib]EFVCWLLAGGPSSGAPPPSK(Palmitoyl)-NH2
modifications: N-terminus assumed
SMILES: CCCCCCCCCCCCCCCC(=O)NCCCC[C@H](NC(=O)[C@H](CO)NC(=O)[C@@H]1CCCN1C(=O)[C@@H]1CCCN1C(=O)[C@@H]1CCCN1C(=O)[C@H](C)NC(=O)CNC(=O)[C@H](CO)NC(=O)[C@H](CO)NC(=O)[C@@H]1CCCN1C(=O)CNC(=O)CNC(=O)[C@H](C)NC(=O)[C@H](CC(C)C)NC(=O)[C@H](CC(C)C)NC(=O)[C@H](Cc1c[nH]c2ccccc12)NC(=O)[C@H](CS)NC(=O)[C@@H](NC(=O)[C@H](Cc1ccccc1)NC(=O)[C@H](CCC(=O)O)NC(=O)C(C)(C)NC(=O)[C@H](C)NC(=O)[C@H](C)NC(=O)[C@H](CCC(N)=O)NC(=O)[C@H](CCCCN)NC(=O)[C@H](CC(=O)O)NC(=O)[C@H](CC(C)C)NC(=O)[C@H](Cc1ccc(O)cc1)NC(=O)[C@@H](NC(=O)[C@H](CO)NC(=O)[C@H](Cc1ccc(O)cc1)NC(=O)[C@H](CC(=O)O)NC(=O)[C@H](CO)NC(=O)[C@@H](NC(=O)[C@H](Cc1ccccc1)NC(=O)[C@@H](NC(=O)CNC(=O)[C@H](CCC(=O)O)NC(=O)C(C)(C)NC(=O)[C@@H](N)Cc1ccc(O)cc1)[C@@H](C)O)[C@@H](C)O)[C@@H](C)CC)C(C)C)C(N)=O
B6: mt-279 (peptide)
peptide: Y[Aib]QGTFTSDYSIYLDKQAA[Aib]EFVNWLLAGGPSSGAPPPSK(Stearoyl)-NH2
modifications: N-terminus assumed
SMILES: CCCCCCCCCCCCCCCCCC(=O)NCCCC[C@H](NC(=O)[C@H](CO)NC(=O)[C@@H]1CCCN1C(=O)[C@@H]1CCCN1C(=O)[C@@H]1CCCN1C(=O)[C@H](C)NC(=O)CNC(=O)[C@H](CO)NC(=O)[C@H](CO)NC(=O)[C@@H]1CCCN1C(=O)CNC(=O)CNC(=O)[C@H](C)NC(=O)[C@H](CC(C)C)NC(=O)[C@H](CC(C)C)NC(=O)[C@H](Cc1c[nH]c2ccccc12)NC(=O)[C@H](CC(N)=O)NC(=O)[C@@H](NC(=O)[C@H](Cc1ccccc1)NC(=O)[C@H](CCC(=O)O)NC(=O)C(C)(C)NC(=O)[C@H](C)NC(=O)[C@H](C)NC(=O)[C@H](CCC(N)=O)NC(=O)[C@H](CCCCN)NC(=O)[C@H](CC(=O)O)NC(=O)[C@H](CC(C)C)NC(=O)[C@H](Cc1ccc(O)cc1)NC(=O)[C@@H](NC(=O)[C@H](CO)NC(=O)[C@H](Cc1ccc(O)cc1)NC(=O)[C@H](CC(=O)O)NC(=O)[C@H](CO)NC(=O)[C@@H](NC(=O)[C@H](Cc1ccccc1)NC(=O)[C@@H](NC(=O)CNC(=O)[C@H](CCC(N)=O)NC(=O)C(C)(C)NC(=O)[C@@H](N)Cc1ccc(O)cc1)[C@@H](C)O)[C@@H](C)O)[C@@H](C)CC)C(C)C)C(N)=O

The binders below were run against glucagon receptor (UniProt P47871 26-477, limits assumed) (assay: cell-based or functional assay).
Sequence of glucagon receptor (P47871 26-477 limits assumed): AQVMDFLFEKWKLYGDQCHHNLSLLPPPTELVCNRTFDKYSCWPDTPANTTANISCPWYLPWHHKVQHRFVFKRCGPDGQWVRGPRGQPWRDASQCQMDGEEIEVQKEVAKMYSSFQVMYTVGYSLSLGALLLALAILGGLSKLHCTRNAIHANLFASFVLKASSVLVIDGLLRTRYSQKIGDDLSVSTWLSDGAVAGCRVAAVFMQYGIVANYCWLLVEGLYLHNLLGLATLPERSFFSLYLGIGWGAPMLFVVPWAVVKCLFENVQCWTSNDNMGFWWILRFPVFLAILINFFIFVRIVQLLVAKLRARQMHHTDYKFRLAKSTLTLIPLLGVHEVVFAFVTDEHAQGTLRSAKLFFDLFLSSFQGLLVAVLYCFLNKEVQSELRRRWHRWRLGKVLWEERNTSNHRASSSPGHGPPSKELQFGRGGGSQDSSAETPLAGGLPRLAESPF

Y[Aib]EGTFTSDYSIYLDKQAA[Aib]EFVNWLLAGGPSSGAPPPSK-NH2 [mt-263] was tested. Which “EC50” value did it give?
The value was 3.18 nM.

B1 was tested. Which “EC50” value did it give?
Its value is 0.211 nM.

With Y[Aib]EGTFTSDKSIYLDKQAA[Aib]EFVCWLLAGGPSSGAPPPS-NH2 (also: C-terminal amidation listed at position 40 of 39-residue chain) [mt-338] as the binder, how does the “EC50” value read?
The value was 295 nM.

How did the “EC50” value turn out when Y[Aib]EGTFTSDYSIYLDKQAA[Aib]EFVNWLLAGGPSSGAPPPSC(PEG 40 kDa)-NH2 [mt-295] was run?
Its value is 87.3 nM.

For Y[Aib]QGTFTSDYSIYLDKQAA[Aib]EFVC(PEG 40 kDa)WLLAG-NH2 [mt-281], which “EC50” value is on record?
The value was 0.282 nM.

For Y[Aib]EGTFTSDK(Myristoyl)SIYLDKQAA[Aib]EFVCWLLAGGPSSGAPPPS-NH2 (also: C-terminal amidation listed at position 40 of 39-residue chain) [mt-337], which “EC50” value is on record?
Its value is 106 nM.

Each binder was assayed against GLP-1 receptor (UniProt P43220 24-463, limits assumed) (assay: cell-based or functional assay).

For B2, which “EC50” value is on record?
Its value is 8.6 pM.

With B3 as the binder, how does the “EC50” value read?
Its value is 4.2 pM.

B4 was tested. Which “EC50” value did it give?
The value was 20.1 pM.

B5 was tested. Which “EC50” value did it give?
The value was 12.4 pM.

B6 was tested. Which “EC50” value did it give?
The value was 4.6 pM.

These binders were tested against T1, GIP receptor (UniProt P48546 22-466) (assay: cell-based or functional assay).
T1 sequence (looked up): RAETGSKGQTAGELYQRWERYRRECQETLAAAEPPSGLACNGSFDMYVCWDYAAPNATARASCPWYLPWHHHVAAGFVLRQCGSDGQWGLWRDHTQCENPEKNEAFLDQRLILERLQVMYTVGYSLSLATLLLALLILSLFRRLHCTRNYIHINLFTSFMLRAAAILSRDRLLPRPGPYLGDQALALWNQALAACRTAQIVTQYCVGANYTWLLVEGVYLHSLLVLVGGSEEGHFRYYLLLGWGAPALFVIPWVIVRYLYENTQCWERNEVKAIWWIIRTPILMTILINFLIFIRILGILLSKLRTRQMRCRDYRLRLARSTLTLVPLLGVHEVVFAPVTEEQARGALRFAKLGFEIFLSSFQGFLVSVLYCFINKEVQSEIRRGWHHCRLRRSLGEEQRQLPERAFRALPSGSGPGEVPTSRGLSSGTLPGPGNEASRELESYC

Which “EC50” value does the source give for Y[Aib]EGTFTSDYSIYLDKQAA[Aib]EFVNWLLAGGPSSGAPPPSK-NH2 [mt-263] here?
Its value is 3.1 pM.

With Y[Aib]EGTFTSDKSIYLDKQAA[Aib]EFVCWLLAGGPSSGAPPPS-NH2 (also: C-terminal amidation listed at position 40 of 39-residue chain) [mt-338] as the binder, how does the “EC50” value read?
The value was 23.4 pM.

B2 was tested. Which “EC50” value did it give?
Its value is 5.2 pM.

With B3 as the binder, how does the “EC50” value read?
The value was 2.8 pM.

With B4 as the binder, how does the “EC50” value read?
Its value is 6.4 pM.

Which “EC50” value does the source give for Y[Aib]EGTFTSDK(Myristoyl)SIYLDKQAA[Aib]EFVCWLLAGGPSSGAPPPS-NH2 (also: C-terminal amidation listed at position 40 of 39-residue chain) [mt-337] here?
Its value is 8 pM.

B5 was tested. Which “EC50” value did it give?
The value was 7.7 pM.

With B6 as the binder, how does the “EC50” value read?
Its value is 4.5 pM.
